According to patent US20260217864A1 (JANUX THERAPEUTICS, published 2026):
Positions count from the first letter of the chain named.

Legend:
Assay in all cases: cell-based or functional assay
[1] = biological target: T1, six-transmembrane epithelial antigen of the prostate-1 (STEAP-1) (UniProt Q9UHE8 1-339, limits assumed)
[2] = biological target: T1, six-transmembrane epithelial antigen of …; remark: listed apart in the source
[3] = biological target: T1, six-transmembrane epithelial antigen of …; remark: listed apart in the source
[4] = biological target: T1, six-transmembrane epithelial antigen of …; remark: listed apart in the source
[5] = biological target: T1, six-transmembrane epithelial antigen of …; remark: listed apart in the source

T1 sequence (Q9UHE8 whole entry): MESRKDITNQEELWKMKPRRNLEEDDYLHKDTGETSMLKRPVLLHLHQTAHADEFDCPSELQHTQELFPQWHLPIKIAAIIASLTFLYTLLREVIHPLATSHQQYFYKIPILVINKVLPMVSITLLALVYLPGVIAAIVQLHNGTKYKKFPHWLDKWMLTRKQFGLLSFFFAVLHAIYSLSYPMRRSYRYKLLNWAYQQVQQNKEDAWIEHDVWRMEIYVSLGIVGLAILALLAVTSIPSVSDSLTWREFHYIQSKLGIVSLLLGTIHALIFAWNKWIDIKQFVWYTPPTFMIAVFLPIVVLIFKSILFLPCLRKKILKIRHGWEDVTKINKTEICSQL

B1: TCE-69 (bispecific antibody)
light: DIQMTQSPSSLSASVGDRVTITCKSSQSLLYRSNQKNYLAWYQQKPGKAPKLLIYWASTRESGVPSRFSGSGSGTDFTLTISSLQPEDFATYYCQQYYNYPRTFGQGTKVEIKRTVAAPSVFIFPPSDRKLKSGTASVVCLLNNFYPREAKVQWKVDNALQSGNSQESVTEQDSKDSTYSLSSTLTLSKADYEKHKVYACEVTHQGLSSPVTKSFNRGEC
chain: not shown
heavy: not shown
Cell line cytotoxicity EC50 (pM), 22RV1 [1]: 359 pM
Cell line cytotoxicity EC50 (pM), IM-95 [1]: 11.2 pM
Cell line cytotoxicity EC50 (pM), LNCaP [1]: 89.1 pM

B2: TCE-4 (bispecific antibody)
light: not shown
heavy: EVQLVESGGGLVQPGGSLRLSCAASGFSITSDYAWNWVRQAPGKGLEWVGYISNSGSISYNPSLKSRFTISRDNSKNTLYLQMNSLRAEDTAVYYCARERNYDYDDYYYAMDYWGQGTLVTVSSASTKGPSVFPLAPSSKSTSGGTAALGCLVKDYFPEPVTVSWNSGALTSGVHTFPAVLQSSGLYSLSSVVTVPSSSLGTQTYICNVNHKPSNTKVDKKVEPKSC
IC50 (pM), 22Rv1 tumor cell killing in the presence of CD8+ T cells [2]: > 10000 pM
IC50 (pM), LNCaP tumor cell killing in the presence of CD8+ T cells [3]: 1710 pM
IC50 (pM), VCaP tumor cell killing in the presence of CD8+ T cells [4]: > 10000 pM
Cell line cytotoxicity EC50 (pM), 22RV1 [1]: > 10000 pM
Cell line cytotoxicity EC50 (pM), IM-95 [1]: 648 pM
Cell line cytotoxicity EC50 (pM), LNCaP [1]: 2220 pM
Cell line cytotoxicity EC50 (pM), VCaP [1]: > 10000 pM

B3: TCE-58 (bispecific antibody)
light: not shown
heavy: B2 heavy with A24V, F27Y, I58T, N74T
Cell line cytotoxicity EC50 (pM), 22RV1 [1]: 332 pM
Cell line cytotoxicity EC50 (pM), LNCaP [1]: 44.5 pM
EC50/pM, LNCaP tumor cell killing [5]: 45 pM

B4: TCE-55 (bispecific antibody)
light: not shown
heavy: B2 heavy with A24V, F27Y, I58T, N74T
Cell line cytotoxicity EC50 (pM), LNCaP [1]: 1310 pM
EC50/pM, LNCaP tumor cell killing [5]: 1310 pM

B5: TCE-75 (bispecific antibody)
light: EIVLTQSPATLSLSPGERATLSCRASSSVSYMHWFQQKPGQAPRLLIYSTSNLASGIPARFSGSGSGTDYTLTISSLEPEDFAVYYCQQRRSFPYTFGQGTKLEIKRTVAAPSVFIFPPSDEQLKSGTASVVCLLNNFYPREAKVQWKVDNALQSGNSQESVTEQDSKDSTYSLSSTLTLSKADYEKHKVYACEVTHQGLSSPVTKSFNRGEC
heavy: not shown
Cell line cytotoxicity EC50 (pM), LNCaP [1]: 5.2 pM

B6: TCE-76 (bispecific antibody)
light: not shown
heavy: QVQLVQSGAEVKKPGASVKVSCKASGYTFSTYWIEWVRQAPGQRLEWMGEILPGSGQTDFNEKFQGRVTFTADTSSDTAYMELSSLRSEDTAVYYCTRWGYYGTRGYFNVWGQGTLVTVSSASTKGPSVFPLAPSSKSTSGGTAALGCLVKDYFPEPVTVSWNSGALTSGVHTFPAVLQSSGLYSLSSVVTVPSSSLGTQTYICNVNHKPSNTKVDKKVEPKSC
Cell line cytotoxicity EC50 (pM), LNCaP [1]: 7.9 pM
